Assay results reported in paper PMC9942873.
Substitutions are numbered along the chain they refer to. Like-named read-outs stand apart in the source and are kept apart here.

B1: RUPA-50 (hIgG1) (antibody, V domains shown)
VH: QVHLVESGGGVVQPGRSLRLSCAASGFTFRSYGMHWVRRVPGKGLEWVATISYDETFKDYPDSVKGRFTISRDNSKNTLFLQMNSLRPADTAVYYCAKDRAHSMHYFEYWGRGTLVTVSS
VL: SYELTQPPSVSVSPGQTARLTCSGDALPKKFAYWYQLKSGQAPVLVIYEDSKRPSGIPERFSGSSSGTTATLTISGAQVEDEADYYCYSRDGSGDQKNIFGGGTKLTVL
B2: RUPA-47 (Fab) (Fab, V domains shown)
VH: QVQLVQSGAEVKKPGASVKLSCTASGYTFTNFGITWVRQAPGQGLEWMAWISVYSGDTDYAQRFQGRVTMTTDTSTRTAYMEMRSLSFDDTAVYYCVRGGRDSPILGGYWGQGTLVTVSS
VL: EIVLTQSPGTLSLSPGERVTLSCRASQSVRSMYLAWYQQKPGQAPRLLIHGASIRATGIPDRFSGSGSGTDFTLTISRLEREDFAVYYCHQYGSSPLTFGGGTKVESK
B3: RUPA-160 (hIgG1) (antibody, V domains shown)
VH: QVQLVQSGAEVKKPGASVKASCKASGYTFDNFDIIWARQATGQGLEWMGWMNPNTGKKGYAQNLKDRVTMTRDSSISTAYLELSSLRSEDTAVYYCVRAVGSYYGSGGWFDPWGQGTLVTVSS
VL: QSVLTQPPSASGTPGQRVTIACSGSSSNIGGNNVKWYQQLPGTAPKLVIYNNDERPPGVPDRVSGSKSGTSASLAISGVQSEDEADYYCATWDDSMKREVFGGGTKLTVL
B4: RUPA-44 (Fab) (Fab, V domains shown)
VH: QLQLQESGPGLVKPSETLSLTCTVSGGSISRSPYYWGWIRQPPGKGLEWFGSIYNNGSTYYNPPLKSRLTISVDTSKNQFSLKLSSVTAADTAVYYCARHGGSTGMKVVVIAPPDYWGQGTLVTVSS
VL: DIQMTQSPATLSASVGDRVTITCRASQSISSWLAWYQQKPGEAPKLLIYKASSLQSGVPSRFSGSGSGTKFSLTISSLQPDDFATFYCQQYHSYPYTFGQGTKLEIK
B5: RUPA-117 (Fab) (Fab, V domains shown)
VH: B4 VH with I53V, P64S, L69V, V94L
VL: B4 VL with S31I, G66A
B6: RUPA-29 (hIgG1) (antibody, V domains shown)
VH: QVHLVESGGGVVQPGRSLRLSCAASGFTFRSYGMHWVRLAPGKGLEWVTAIWYDGSKKHFADSVKGRFTISRDNSKNTLYLQMSSLRVEDTAVYYCARDFAHGAFYPVDWGRGTLVTVSS
VL: SYELTQPPSVSVSPGQTARITCSGDALPKKHAYWYQQKSGQAPVLVIYDDSKRPSGIPERFSGSSSGTMATLSISGAQVEDEAAYYCYSSDTSANYWVFGGGTKLTVL
B7: RUPA-29 (Fab) (Fab, V domains shown)
VH: B6 VH
VL: B6 VL
B8: RUPA-54 (hIgG1) (antibody, V domains shown)
VH: QVQLVESGGGVVQPGRSLRLSCTASGFTFRSYGIHWVRQAPGKGLQWVAFISYDGRNKYYADSVKGRFTISRDNSKNTLYLQMSGLRADDTAVYYCAKDSDNDCTATSCYTVSWGQGTLVTVSS
VL: SYELTQPPSVSVSPGQTARITCSGDALPKKYAYWYQQKSGQAPVLVIYEDKKRPSGIPERFSGSSSGTMATLTISGAQVEDEADYYCYSTDSRTDHGGIFGGGTKLTVL
B9: RUPA-100 (hIgG1) (antibody, V domains shown)
VH: QVQLVESGGGVVQPGRSLRLSCAASGFSFSHYGMHWVRQAPGKGLEWVAVISYDGNYKYYGDSVKGRFTISRDNFKNTLYLQMNSLRPEDTAVYYCAKGKAHSCVSTSCYTDFWGQGTLVTVPS
VL: B8 VL with K51S, A83G, R93S, T94Y, D95N, G97R, I99V

How the values were obtained:
[1] = target: Pfs48/45 in its native configuration on the female gamete surface membrane (Plasmodium falciparum NF54 (endogenous in gametes))
[2] = target: Pfs48/45 in its native configuration on the female gamete surface membrane (Plasmodium falciparum NF54 (endogenous in gametes)); remark: listed apart in the source
[3] = target: Pfs48/45 6C.mAgE1 (S322N; C terminal 6x HIS tag) (Plasmodium falciparum); assay: BLI
[4] = target: Pfs48/45 6C.mAgE1 (D320H; C terminal 6x HIS tag) (Plasmodium falciparum); assay: BLI
[5] = target: Pfs48/45 6C.mAgE1 (L314I; C terminal 6x HIS tag) (Plasmodium falciparum); assay: BLI
[6] = target: Pfs48/45 6C.mAgE1 (K416N; C terminal 6x HIS tag) (Plasmodium falciparum); assay: BLI

| Binder | other [1] [% TRA] | Kd [6] [nM] | also measured |
| --- | --- | --- | --- |
| B1 | > 80 |  |  |
| B2 |  |  | other [2]: 100 % TRA |
| B3 | 80 |  |  |
| B4 |  | < 20 | Kd [3]: < 20 nM; Kd [4]: < 20 nM; Kd [5]: < 20 nM |
| B5 |  | < 20 | Kd [3]: < 20 nM; Kd [4]: < 20 nM; Kd [5]: < 20 nM |
| B6 | > 80 |  |  |
| B7 |  | 109 |  |
| B8 | > 80 |  |  |
| B9 | > 80 |  |  |
